Reference: paper PMC3589475, “Large-Scale Functional Purification of Recombinant HIV-1 Capsid” (PLoS ONE, 2013)

Columns and labels:
[1] = target: T1, wild-type HIV-1 capsid protein (WT CA) (HIV-1 (pLAI.2), UniProt P03348 133-363, biotin (EZ-link Sulfo-NHS-LC-LC-biotin, 1 biotin per molecule) in the SPR only); experiment: SPR; Biacore T100; minimally biotinylated WT CA or CA 4Mu hexamer captured on neutravidin on CM5 chips, CAI injected (100 µM and 3-fold dilutions); 50 mM sodium phosphate pH 7.5, 150 mM NaCl, 0.01% P20; steady-state one-site fit; details: both partners purified
T1 construct: HIV-1 capsid protein (CA), the 231 residues of wild-type CA amplified from the infectious HIV-1 cDNA plasmid pLAI.2; The 5' primer added a codon for an N-terminal methionine; untagged (pET30a NdeI/XhoI, stop codon); also called CA FL; full-length wild-type capsid protein; source: E. coli BL21(DE3), purified (ammonium sulfate cut, two rounds of polymerization/depolymerization, Q-HP flow-through); …

[2] = target: T1, wild-type HIV-1 capsid protein (WT CA); experiment: turbidity (absorbance at 350 nm) polymerization assay with inhibitor; 40 µM WT CA pre-incubated with inhibitor (2-fold serial dilution from 20 µM final for CAI-4), 50 mM sodium phosphate pH 7.5, 2 M NaCl, 0.005% Antifoam 204, 1% DMSO, 25°C; IC50 from initial rates; details: both partners purified

B1: CAI peptide (peptide)
peptide: ITFEDLLDYYGP
notes: source: synthetic peptide, bought: AnaSpec Inc
B1 showed a Kd [1] of 1.38 µM.

B2: CAI-4 peptide (peptide)
peptide: ITFEDLLDYYK
notes: variant of CAI peptide with a lysine residue replacing the last two C-terminal amino acids; source: synthetic peptide, bought: AnaSpec Inc
For B2, the IC50 [2] was 4.7 ± 0.9 µM.
